Results reported in article doi:10.1101/2023.12.20.572542 (bioRxiv, 2023).
Where a chain is given by its changes, count along the chain named. Names may count otherwise.

Key:
[1] = target: hSlo1EM (human Slo1 channel, tags released) (human); experiment: SEC
[2] = target: hSlo1EM-eGFP-twin-strep (human Slo1 channel, tags on) (human)
[3] = target: hSlo1EM-eGFP-twin-strep (human Slo1 channel, tags on) (human); remark: listed apart in the source
[4] = target: hSlo1EM-eGFP-twin-strep (human Slo1 channel, tags on) (human); remark: listed apart in the source
[5] = target: hSlo1EM-eGFP-twin-strep (human Slo1 channel, tags on) (human); remark: listed apart in the source
[6] = target: the molecule itself; experiment: SEC
[7] = target: hSlo1EM (human Slo1 channel, tags released) (human); experiment: cryo-EM structure
[8] = target: the molecule itself; experiment: cryo-EM structure

Sequence of hSlo1EM-eGFP-twin-strep (human Slo1 channel, tags on) (human) (Q12791 whole entry): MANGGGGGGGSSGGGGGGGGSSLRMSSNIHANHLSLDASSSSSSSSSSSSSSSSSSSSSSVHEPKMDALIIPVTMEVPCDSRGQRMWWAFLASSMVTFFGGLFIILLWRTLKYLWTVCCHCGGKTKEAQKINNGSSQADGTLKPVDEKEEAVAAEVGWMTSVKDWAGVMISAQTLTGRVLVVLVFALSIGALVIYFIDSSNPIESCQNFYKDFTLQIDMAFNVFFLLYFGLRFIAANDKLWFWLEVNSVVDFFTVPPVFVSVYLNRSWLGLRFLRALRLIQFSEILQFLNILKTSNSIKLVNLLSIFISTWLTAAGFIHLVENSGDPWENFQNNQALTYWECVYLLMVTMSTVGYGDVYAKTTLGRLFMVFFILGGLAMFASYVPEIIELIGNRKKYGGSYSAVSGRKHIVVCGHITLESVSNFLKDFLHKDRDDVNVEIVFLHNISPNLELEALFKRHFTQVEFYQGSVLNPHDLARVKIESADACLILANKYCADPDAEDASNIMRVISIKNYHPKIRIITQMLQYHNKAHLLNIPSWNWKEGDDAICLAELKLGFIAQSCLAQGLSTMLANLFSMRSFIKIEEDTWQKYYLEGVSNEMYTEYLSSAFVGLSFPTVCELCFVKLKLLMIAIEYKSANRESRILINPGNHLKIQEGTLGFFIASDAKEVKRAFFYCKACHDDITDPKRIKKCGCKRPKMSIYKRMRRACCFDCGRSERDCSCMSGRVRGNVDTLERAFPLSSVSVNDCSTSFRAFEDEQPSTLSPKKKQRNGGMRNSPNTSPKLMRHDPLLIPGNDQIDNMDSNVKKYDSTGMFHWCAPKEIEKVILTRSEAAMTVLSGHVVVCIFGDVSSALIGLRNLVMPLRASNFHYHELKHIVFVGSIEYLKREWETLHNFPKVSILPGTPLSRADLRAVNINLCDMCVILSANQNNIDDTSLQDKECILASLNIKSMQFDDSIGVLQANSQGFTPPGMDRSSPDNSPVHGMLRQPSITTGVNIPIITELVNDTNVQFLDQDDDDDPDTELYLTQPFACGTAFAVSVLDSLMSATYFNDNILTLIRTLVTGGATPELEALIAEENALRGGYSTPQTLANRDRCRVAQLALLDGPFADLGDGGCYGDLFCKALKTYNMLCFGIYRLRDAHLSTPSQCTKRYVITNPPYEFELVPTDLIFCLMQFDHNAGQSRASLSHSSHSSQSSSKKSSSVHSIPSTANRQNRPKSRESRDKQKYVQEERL

## hSlo1EM (human Slo1 channel, tags released) (natural protein)
[1]
  stoichiometry N: 4 subunits

## hSlo1EM-eGFP-twin-strep (human Slo1 channel, tags on) (natural protein)
[2]
  stoichiometry N: 4 subunits

B1: human LRRC26 (γ1)-mCherry-FLAG (natural protein, UniProt Q2I0M4 27-334, looked up)
chain: QVSATASPSGSLGAPDCPEVCTCVPGGLASCSALSLPAVPPGLSLRLRALLLDHNRVRALPPGAFAGAGALQRLDLRENGLHSVHVRAFWGLGALQLLDLSANQLEALAPGTFAPLRALRNLSLAGNRLARLEPAALGALPLLRSLSLQDNELAALAPGLLGRLPALDALHLRGNPWGCGCALRPLCAWLRRHPLPASEAETVLCVWPGRLTLSPLTAFSDAAFSHCAQPLALRDLAVVYTLGPASFLVSLASCLALGSGLTACRARRRRLRTAALRPPRPPDPNPDPDPHGCASPADPGSPAAAAQA
[3]
  percent of total Slo1 in complex: 50%
[4]
  stoichiometry N (auxiliary subunits per Slo1 tetramer): 4
[5]
  stoichiometry N (γ1 subunits per Slo1 tetramer): 3.5
[6]
  binding result: binds

B2: γ1 P270F-mCherry-FLAG (natural protein)
chain: B1 chain with P244F
[4]
  stoichiometry N (γ subunits per Slo1 tetramer): 2.4

B3: human LRRC26 (γ1) subunit, tags released (natural protein, UniProt Q2I0M4 27-334, looked up)
chain: B1 chain
modifications: density at N147 likely corresponding to glycosylation
[7]
  stoichiometry N (γ1 subunits per Slo1 tetramer): 4
[8]
  binding result: binds

B4: β4 subunit-mCherry-FLAG (natural protein)
chain: MAKLRVAYEYTEAEDKSIRLGLFLIISGVVSLFIFGFCWLSPALQDLQATEANCTVLSVQQIGEVFECTFTCGADCRGTSQYPCVQVYVNNSESNSRALLHSDEHQLLTNPKCSYIPPCKRENQKNLESVMNWQQYWKDEIGSQPFTCYFNQHQRPDDVLLHRTHDEIVLLHCFLWPLVTFVVGVLIVVLTICAKSLAVKAEAMKKRKFS
[3]
  percent of total Slo1 in complex: > 90%
[4]
  stoichiometry N (auxiliary subunits per Slo1 tetramer): 4

B5: LRRD of γ1 (residues 1-261)-mCherry-FLAG (domain or fragment, human, UniProt Q2I0M4 27-261, looked up)
chain: QVSATASPSGSLGAPDCPEVCTCVPGGLASCSALSLPAVPPGLSLRLRALLLDHNRVRALPPGAFAGAGALQRLDLRENGLHSVHVRAFWGLGALQLLDLSANQLEALAPGTFAPLRALRNLSLAGNRLARLEPAALGALPLLRSLSLQDNELAALAPGLLGRLPALDALHLRGNPWGCGCALRPLCAWLRRHPLPASEAETVLCVWPGRLTLSPLTAFSDAAFSHCAQPLALRD
[6]
  binding result: binds

B6: LRRC38 (γ4)-mCherry-FLAG (natural protein)
chain: CPAGCACTDPHTVDCRDRGLPSVPDPFPLDVRKLLVAGNRIQRIPEDFFIFYGDLVYLDFRNNSLRSLEEGTFSGSAKLVFLDLSYNNLTQLGAGAFRSAGRLVKLSLANNNLVGVHEDAFETLESLQVLELNDNNLRSLSVAALAALPALRSLRLDGNPWLCDCDFAHLFSWIQENASKLPKGLDEIQCSLPMESRRISLRELSEASFSECRFSLSLTDLCIIIFSGVAVSIAAIISSFFLATVVQCLQRCAPNKDAEDEDEDKDD
[3]
  percent of total Slo1 in complex: < 10%

B7: β2 subunit-mCherry-FLAG (natural protein)
chain: MFIWTSGRTSSSYRHDEKRNIYQKIRDHDLLDKRKTVTALKAGEDRAILLGLAMMVCSIMMYFLLGITLLRSYMQSVWTEESQCTLLNASITETFNCSFSCGPDCWKLSQYPCLQVYVNLTSSGEKLLLYHTEETIKINQKCSYIPKCGKNFEESMSLVNVVMENFRKYQHFSCYSDPEGNQKSVILTKLYSSNVLFHSLFWPTCMMAGGVAIVAMVKLTQYLSLLCERIQRINR
[3]
  percent of total Slo1 in complex: > 90%
[4]
  stoichiometry N (auxiliary subunits per Slo1 tetramer): 4

B8: LRRC55 (γ3)-mCherry-FLAG (natural protein)
chain: GTSCPVLCTCRNQVVDCSSQRLFSVPPDLPMDTRNLSLAHNRITAVPPGYLTCYMELQVLDLHNNSLMELPRGLFLHAKRLAHLDLSYNNFSHVPADMFQEAHGLVHIDLSHNPWLRRVHPQAFQGLMQLRDLDLSYGGLAFLSLEALEGLPGLVTLQIGGNPWVCGCTMEPLLKWLRNRIQRCTADSQLAECRGPPEVEGAPLFSLTEESFKACHLTLTLDDYLFIAFVGFVVSIASVATNFLLGITANCCHRWSKASEEEEI
[3]
  percent of total Slo1 in complex: < 10%
